Assays:
Conditions in all cases: protein: recombinant; tags: GST; label: 5' biotin
GST-HuR-RRM1 [1] = molecular target: T1, GST-HuR-RRM1 (UniProt Q15717 20-98); test: EMSA; no multiple shifted bands (Fig 4d); EMSA: 3 mM MgCl2, 40 mM KCl, 5% glycerol, 2 mM DTT, 2 ug tRNA, 5 nM RNA, 40 min room temperature; pH not stated; 6% native acrylamide gel
GST-HuR = GST-HuR (UniProt Q15717 1-326); test: EMSA; unmodified; multiple shifted bands (oligomer); EMSA: 3 mM MgCl2, 40 mM KCl, 5% glycerol, 2 mM DTT, 2 ug tRNA, 5 nM RNA, 40 min room temperature; pH not stated; 6% native acrylamide gel
Sequence of GST-HuR (Q15717 whole entry): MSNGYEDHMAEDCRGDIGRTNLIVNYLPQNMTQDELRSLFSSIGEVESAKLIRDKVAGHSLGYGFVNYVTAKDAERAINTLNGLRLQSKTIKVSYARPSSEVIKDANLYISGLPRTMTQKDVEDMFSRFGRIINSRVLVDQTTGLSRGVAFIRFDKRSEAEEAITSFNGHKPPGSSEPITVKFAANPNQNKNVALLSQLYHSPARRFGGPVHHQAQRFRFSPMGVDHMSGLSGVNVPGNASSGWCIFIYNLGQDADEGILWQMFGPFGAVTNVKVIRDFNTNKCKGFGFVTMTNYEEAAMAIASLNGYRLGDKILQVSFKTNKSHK

GST-HuR-RRM1 [2] = molecular target: T1, GST-HuR-RRM1; test: EMSA; EMSA: 3 mM MgCl2, 40 mM KCl, 5% glycerol, 2 mM DTT, 2 ug tRNA, 5 nM RNA, 40 min room temperature; pH not stated; 6% native acrylamide gel

T1 sequence (Q15717 20-98): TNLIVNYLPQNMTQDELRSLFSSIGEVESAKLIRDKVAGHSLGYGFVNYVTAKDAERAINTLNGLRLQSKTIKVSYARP

Row | Binder | binding result (GST-HuR-RRM1 [1]) | binding result (GST-HuR) | binding result (GST-HuR-RRM1 [2])
1 | CUAUGUAUUUAUUUAUUUAUUAAUU (ssRNA) [Cxcl2 ARE RNA oligo] | binds | binds | –
2 | AUUUAUUUAUUUAUUUAUUUAUUUA (ssRNA) [AU-rich RNA oligo (tandem ARE repeat)] | – | binds | binds

Source: PMC7904744, “Poly(ADP-ribosyl)ation enhances HuR oligomerization and contributes to pro-inflammatory gene mRNA stabilization”
